Measurements: IntAct's records for PubMed 22289178

B1: Gamma-crystallin D (Homo sapiens), P07320 (parent)
chain: MGKITLYEDRGFQGRHYECSSDHPNLQPYLSRCNSARVDSGCWMLYEQPNYSGLQYFLRRGDYADHQQWMGLSDSVRSCRLIPHSGSHRIRLYEREDYRGQMIEFTEDCSCLQDRFRFNEIHSLNVLEGSWVLYELSNYRGRQYLLMPGDYRRYQDWGATNARVGSLRRVIDFS
partner: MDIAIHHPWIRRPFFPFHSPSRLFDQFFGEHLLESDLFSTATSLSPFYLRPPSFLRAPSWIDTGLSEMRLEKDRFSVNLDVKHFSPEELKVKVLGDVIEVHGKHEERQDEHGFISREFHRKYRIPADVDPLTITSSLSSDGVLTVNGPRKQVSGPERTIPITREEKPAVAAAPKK
B2: Gamma-crystallin D (Homo sapiens), P07320 (parent)
chain: B1 chain
partner: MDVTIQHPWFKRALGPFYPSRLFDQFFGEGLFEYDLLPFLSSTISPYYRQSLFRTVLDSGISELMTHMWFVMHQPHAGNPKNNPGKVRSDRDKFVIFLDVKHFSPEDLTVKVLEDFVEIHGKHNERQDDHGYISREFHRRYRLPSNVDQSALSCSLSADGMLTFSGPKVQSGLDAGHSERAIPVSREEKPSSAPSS
B3: Alpha-crystallin B chain (Mus musculus), P23927 (parent)
chain: B1 partner

Variants of: B1
Conditions: with cryab_mouse Cryab, P23927

Row | effect of a mutation on the interaction | Variant
1 | increasing interaction | V76D
2 | increasing interaction | I4F

Variants of: B2
Conditions: with cryaa_rat Cryaa

Row | effect of a mutation on the interaction | Variant
3 | increasing interaction | V76D
4 | increasing interaction | I4F

Variants of: B3
Conditions: with crgd_human CRYGD, P07320

Row | effect of a mutation on the interaction | Variant
5 | increasing interaction | S45D
6 | increasing interaction | S59D
7 | increasing interaction | S19D
